# Measured values as given in the DeepSol protein solubility set.
# Test: soluble on expression in E. coli; label from the status in PepcDB or PDB records
row,Sequence,soluble on expression in E. coli
1,MEPNPSDPVLTDRIQAIVTTEKSIDEMMKCAREIIQDLGKEKQIGKNKMEDNANNFKKLITQVENELSAQMQYLSHVCVGSSHQGSTFGVLQNSLLAQSGLSSLHSELFQIVRYLDPTSDEPQTTEEDEEDGSDDLNEDGADGAPSSTVTSSTTDGSGGGDDAASSSAPRSQEESGRQMTDDDDDMEQ,not soluble
2,MSTITKEWLLKTIAELEEERDATPGAVNEDAAMALAAMKLALASLEAEPVAWLLSGGGAKNNVSFDSGNAYAAQLREVTPLYTAPPAPVSVPAAMEIDDDFDSAFEHGKAVGWNAYRAAMLQAEPVSNSDELPLDYLQGHKDGLEWAAQLAEANHPQTGDWLYDDQIELARAIRKGPDMPTVQGGNSPVIPDGWVMVPVELTPDMRAAWDSAPYTDDDDNDMQAAYRAMIAVAPQWKVK,not soluble
3,MQTKNKQGVLLVNLGTPDEPTAPAVKRFLSQFLHDHRVVDMTRWLWCPILHGVILPIRSPKVAKLYESVWMEEGSPLMVYSKRQAKKLAQHLDMPVELGMTYGNPSLQSGFEALIAQGVEEVIVLPLYPQYSGTTTAAVSDGITKAFKQLPVMPAFSFIRDYHDHPMYIEALAHSVRQYWEEHGKGDYLLCSYHGIPKRYADNGDIYPQHCEATTRLLGEALGLSSDQIGMAYQSRFGREEWLQPYTDKTLETITSKGVKKIDIMTPAFSSDCLETLEEIAGENKEIFMEAGGEQFHYIPCLNDDDMHIDMMAELVRSKL,not soluble
4,MFTIKTDDLTHPAVQALVAYHISGMLQQSPPESSHALDVQKLRNPTVTFWSVWEGEQLAGIGALKLLDDKHGELKSMRTAPNYLRRGVASLILRHILQVAQDRCLHRLSLETGTQAGFTACHQLYLKHGFADCEPFADYRLDPHSRFLSLTLCENNELP,soluble
5,MEITDVRLRRVETDGRMKAISSITIDGEFVIHDIRVIDGNEGLFVAMPSKRTPDGEFRDIAHPINSGTRAKIQEAVLAAYEVADEPAVNEESSADESVVEEN,not soluble
6,MFMIEVEIFPHRYLKASTTEKFLNKIYDLKTVERVVIHGQPLPKVITYGPARGLPVNHTERKIIHVKGVPVELTVMAGRFWITLSDDSELDKLDEICKEMFPFGYNLRVGKFLKDRPTVTDYIKYGEDGVFLINEMDRRLIGMVDPRSRMANSVTVVEKEEKEELEHHHHHH,soluble
7,MAPITVGDVVPDGTISFFDENDQLQTVSVHSIAAADGFLDFDLRIGVFGFSEVSMSHVPGFIGKAEELKSKGIDEIICFSVNDPFVMKAWGKTYQENKHVKFVADGSGEYTHLLGLELDLKDKGLGIRSRRFALLLDNLKVTVANVENGGEFTVSSAEDILKALLEHHHHHH,not soluble
8,PPTGECRTVVFDFDGVLAEGFEGEVRPRPLGVALARRLIGRGYRVYIVSGRPEQERSLIARLLREWCIPLGGVRGIILRRRGVGEVDHKLESIMEVEAREGCVGEVHDDNPYVLEALRRRVETLVLHTPR,not soluble
9,MKLIILEHYSQASEWAAKYIRNRIIQFNPGPEKYFTLGLPTGSTPLGCYKKLIEYYKNGDLSFKYVKTFNMDEYVGLPRDHPESYHSFMWNNFFKHIDIHPENTHILDGNAVDLQAECDAFEEKIKAAGGIELFVGGIGPDGHIAFNEPGSSLVSRTRVKTLAMDTILANARFFDGELTKVPTMALTVGVGTVMDAREVMILITGAHKAFALYKAIEEGVNHMWTVSAFQQHPRTVFVCDEDATLELKVKTVKYFKGLMLVHNKLVDPLYSIKEKETEKSQSSKKPYSD,soluble
10,MGSDKIHHHHHHMNNIFLILGCAKQRWQDLEIICEYVKKTYSLTTMLMVNKAHKEFYSVCDQVIEVDLSDQNFIALASRLLSEQKVSGGLLFADQALLHGTKLFEQLGIVCDNSELGINSYSKLEFRRQEKRYFSHAAKTHYFVPEFSKVNSLQDVHAFAVKYPDGFILKPISEGGSRGVLKLHAQSDFGAAYKQVECYQADGLMCEQLIPTFREFSFDGVGDISFITEKLVATGAHPVEVGQIVPAELTCDSAEKISAHGRLMNLWVGQQLGAFHNEIAYLESQGSTAAIESNRRSGGMGIWNLAEKVFGENLFHRWVDVAMGQTVEHIPLNATGKAMSCMLGSRENLIDDLTMITAQIQEVLAFELGPDIELFSLRWLHTQPHMLPSIPQSNFDFLAEACIYCAHFDLSNQALYERVQRAWDKCLYIGMKEEKCA,not soluble
11,MSLIISELRHEHALRDLLRAAGMSRSTWYYNMNALKQGDRYAGLKENIRKIYHYHKGRYGYRRITLALRKQGLRINHKTVQRLMAELSLRSVIRAKKYRAWKGRTGEAAPNILSRNFGASKANEKWVTDVTEFPVQGKKLYLSSVLDLFNREVIAYSLSERPVMEMVNTMLDGAFPKLRPGDAPLLHSDQGWHYRMRSYQERLKAHGMTQSMSRKGNCLDNAVMENFFGTLKSECFYLREFRSVSALRKAVEDYIHYYNNERISLKLKGLSPVEYRTQALRAAEGHHHHHH,not soluble
12,MPPLFHPHLVNGPFDDPGLYVDFLFERRAVLFDLGDTAPLPPRKVLRLSHIFVSHTHVDHFIGFDRVVRLCLGREKRLHLLGPPGFVDQVAARLAGYTWNLVETFPTDFTLAAAELHPDGSVHSAEFHCLAAFSRDNERRDRAAGGVLLDEEAFRVRSVFLDHGIPCLAFALEEKNHVHILKNRLREAGLPTGAWLAELKRAILGGRDDGEPFRAWWRDGGKECEAWFPLGELRERFTKTVAGQKIVYVTDAAPTPENRRLIVELAAGADYLFIEAPFLDEERERAGDRCHLTARIAGELGRDAGVARVVPFHFSPRYMGRESLLRDEVERAFRGLEHHHHHH,not soluble
13,GKRSERQQADMEMMKDRFAKLLLGEDMSGGGKGVSSALALSNAITNLAASIFGEQTKLQPMPQDRQARWKKEIDWLLSVTDHIVEFVPSQQTSKDGVCTEIMVTRQRGDLLMNIPALRKLDAMLIDTLDNFRGHNEFWYVSRDSEEGQQARNDRTNDKWWLPPVKVPPGGLSEPSRRMLYFQKDSVTQVQKAAMAINAQVLSEMEIPESYIDSLPKNGRASLGDSIYKSITEEWFDPEQFLAMLDMSTEHKVLDLKNRIEASVVIWKRKLHTKDTKSSWGSAVSLEKRELFEERAETILVLLKQKFPGLPQSSLDISKIQFNKDVGQAVLESYSRILESLAYTVMSRIEDVLYTDTLALKQTLLA,soluble
14,MGSDKIHHHHHHMAQVLWIIQIISKGLVRTLRFKAHILRMILLGSLGVAIHVSVVNAAVTDNSLPQESIPLVQGFIDAVKAHDRQAIADYMAYPIKRTNPIPAINTPEELLKRFDQVFDPEILETIAQSQVEADWQAMGWRGIMLGSGTIWMDFDGKITAVNYQTPAETKLKAELIANQKTGLHESVSQFVSPELAWQTAKFTIRVDNMGNSQYRYASWAKGKPLSEKPDLVLNQGKLVFDGSGGNHSFQFTSGPYLYVCDVIVLGTSDSPIGELVVFKHDRVLLREPAIKAE,not soluble
15,VEVLLGGDDGSLAFLPGDFSVASGEEIVFCNNAGFPHNVVFDEDEIPSGVDAAKISMSEEDLLNAPGECYKVTLTEKGTYKFYCSPHQGAGMVGKVTVN,soluble
16,SASNYPAYMDNYLKEVINQVEEETGYNLLTTGMDVYTNVDQEAQKHLWDIYNTDEYVAYPDDELQVASTIVDVSNGKVIAQLGARHQSSNVSFGINQAVETNRDWGSTMKPITDYAPALEYGVYDSTATIVHDEPYNYPGTNTPVYNWDRGYFGNITLQYALQQSRNVPAVETLNKVGLNRAKTFLNGLGIDYPSIHYSNAISSNTTESDKKYGASSEKMAAAYAAFANGGTYYKPMYIHKVVFSDGSEKEFSNVGTRAMKETTAYMMTDMMKTVLSYGTGQNAYLAWLPQAGKTGTSNYTDEEIENHIKTSQFVAPDELFAGYTRKYSMAVWTGYSNRLTPLVGNGLTVAAKVYRSMMTYLSEGSNPEDWNIPEGLYRNGEFVFKNGAR,soluble
17,ATGTCGTTGGCAAAAGCGTCCTTGTGGACGGCGGCCAGTACACTGGTCAAGATTGGTGCCGGGTTACTGGTCGGTAAGTTGCTGGCGGTGTCATTTGGTCCGGCGGGGCTTGGGCTGGCGGCAAATTTCCGCCAGTTGATTACCGTGCTCGGCGTGCTTGCCGGGGCTGGCATCTTTAACGGTGTAACCAAATACGTTGCCCAGTACCATGATAATCCGCAACAGCTGCGCCGCGTGGTCGGCACTTCATCAGCGATGGTACTTGGTTTCTCTACGCTGATGGCGCTGGTTTTTGTGCTGGCAGCTGCGCCAATCAGCCAGGGATTGTTTGGTAATACCGACTATCAGGGGCTGGTGCGTTTAGTGGCGCTGGTGCAAATGGGGATCGCCTGGGGCAACCTGTTACTGGCGCTGATGAAAGGCTTTCGSGATGCCGCAGGTAATGCGTTATCGCTGATTGTCGGCAGCTTGATTGGCGTTCTCGCGTACTACGTCAGTTACCGTTTGGGCGGTTATGAAGGGGCGTTGCTGGGTCTGGCGCTGATTCCCGCGCTGGTGGTAATTCCTGCCGCCATCATGTTGATCAAACGTGGTGTCATCCCGTTAAGCTATCTGAAACCCAGCTGGGATAACGGTCTGGCAGGGCAGTTGAGCAAATTTACGCTCATGGCGTTGATTACGTCGGTGACCTTGCCTGTTGCTTACATCATGATGCGTAAACTGCTGGCGGCGCAGTATAGCTGGGATGAGGTGGGGATCTGGCAAGGGGTGAGCAGTATTTCCGATGCCTACCTGCAATTTATTACGGCATCGTTCAGCGTATATTTGCTGCCCACGTTGTCGCGGCTAACGGAAAAGCGCGATATCACCCGGGAAGTGGTTAAATCGCTGAAATTCGTCTTACCGGCAGTGGCGGCGGCGAGTTTTACCGTCTGGCTGCTGCGTGATTTTGCTATCTGGCTGCTGTTGTCGAATAAATTTACCGCTATGCGCGATCTCTTTGCCTGGCAGTTAGTGGGTGATGTGTTAAAAGTGGGCGCTTATGTCTTTGGTTATCTGGTGATCGCCAAAGCGTCACTGCGGTTTTATATTCTGGCGGAAGTCAGCCAGTTCACTTTATTGATGGTATTTGCCCACTGGCTAATCCCTGCGCATGGTGCACTGGGCGCGGCGCAGGCATATATGGCAACTTATATCGTCTATTTTTCTCTTTGTTGTGGCGTGTTTTTACTCTGGCGTAGGCGGGCATGA,not soluble
18,AMGQTVTTPLSLTLGHWKDVERIAHNQSVDVKKRRWVTFCSAEWPTFNVGWPRDGTFNRDLITQVKIKVFSPGPHGHPDQVPYIVTWEALAFDPPPWVKP,soluble
19,MGSDKIHHHHHHLKLTKNIVSIVTDVILNESEAIKNLVNHINDDFQHIIDAILSCKGRVVITGIGKSAIIGNKIVATLNSTGTPALFMHAADAIHGDLGMIQGGDVVICISKSGNTPEIKVLVPLIKNRGTILIGMVGNVDSYLAVQSDYVLNVTVEREACPNNLAPTTSTTATLVMGDALAVALLECRNFSSEDFAQLHPGGALGKQLYLRVNDVYTANEKPMVAPDATVKDVILEISSKRLGAAAVVDSAGILQGIITDGDLRRMLNAHDSFKQLCAADIMTKAPKTIDADEFAASAMLLMQSKNITQLIVMKNENFAGFIHIHDLLKEGIV,not soluble
20,MGSDKIHHHHHHMETIERHFRCNEGSAADYAAQLREVGTVMLPAYVAFDAHELAHIDALQARLPEEPVTAGDAGDTHDIYVRRIMVDRAGERPQLVNRPHSEPILALLTDARRTRFFGDMFGANAEYFIRRCQINRMLKDSFIGLHLDAASNPDYEFSVVIQLGREFDGGEFVVHPEGRLPNVFAPTYGTVIVTSCMHRHEVRSVRANERTSLVYFYARHNGVNRRAN,not soluble
